In US20210246166A1 (Bayer, published 2021):
Numbered stars: 1 amine (or outer) side, 2 acyl side, 3 side chain; on linkers, the order of the positions; unused ones are H or OH. Bridge positions count the residues as written; N and C are the ends. Square brackets hold non-standard residues; d marks the D form. Ends that are not written are not given here. * marks the point of attachment. X7 = 4‑(3,5-Dimethyl-1,2-oxazol-4-yl)‑L‑phenylalanine, Cc1noc(C)c1-c1ccc(C[C@H](N[*:1])C(=O)[*:2])cc1; Pro(trans-4-F) = O=C(O)[C@@H]1C[C@@H](F)CN1; Oic = O=C(O)[C@@H]1C[C@@H]2CCCC[C@@H]2N1; Morpholine(3S-CO) = O=C(O)[C@@H]1COCCN1; Butanoyl(3,3-Me2) = CC(C)(C)CC(=O)*; Cyclopropanecarbonyl = O=C(C1CC1)*; tBuAla = CC(C)(C)C[C@H](N)C(=O)O; Pen = CC(C)(S)[C@H](N)C(=O)O; 4Amb = NCc1ccc(C(=O)O)cc1; Isovaleryl = CC(C)CC(=O)*; NMeC = CN[C@@H](CS)C(=O)O; Me2Gly = CN(C)CC(=O)*; Sar = CNCC(=O)O

T1: recombinant human MASP1 active protease (amino acids 297-699, C-terminal His Tag) (human, UniProt P48740 297-699)
T1 sequence: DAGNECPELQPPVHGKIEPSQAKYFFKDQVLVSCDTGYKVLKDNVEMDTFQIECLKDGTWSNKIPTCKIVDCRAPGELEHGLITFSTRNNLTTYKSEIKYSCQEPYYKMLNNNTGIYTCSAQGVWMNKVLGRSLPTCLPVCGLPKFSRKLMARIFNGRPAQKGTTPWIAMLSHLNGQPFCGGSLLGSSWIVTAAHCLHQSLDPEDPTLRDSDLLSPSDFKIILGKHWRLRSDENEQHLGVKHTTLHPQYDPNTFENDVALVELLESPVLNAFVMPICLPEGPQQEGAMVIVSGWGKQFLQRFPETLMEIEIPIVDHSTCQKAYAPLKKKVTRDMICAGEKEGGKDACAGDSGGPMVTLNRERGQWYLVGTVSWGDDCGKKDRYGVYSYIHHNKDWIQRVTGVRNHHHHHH

B1: Example 362: (4-(Aminomethyl)benzoic acid)-IC+SRSLPPI-((N-Me)C)+IPD-NH2 (peptide)
peptide: [4Amb]ICSRSLPPI[NMeC]IPD-NH2
modifications: disulfide 3-11; N-terminus assumed
SMILES: CC[C@H](C)[C@H](NC(=O)c1ccc(CN)cc1)C(=O)N[C@H]1CSSC[C@@H](C(=O)N[C@H](C(=O)N2CCC[C@H]2C(=O)N[C@@H](CC(=O)O)C(N)=O)[C@@H](C)CC)N(C)C(=O)[C@H]([C@@H](C)CC)NC(=O)[C@@H]2CCCN2C(=O)[C@@H]2CCCN2C(=O)[C@H](CC(C)C)NC(=O)[C@H](CO)NC(=O)[C@H](CCCNC(=N)N)NC(=O)[C@H](CO)NC1=O
B2: Example 354: ((N-Me)G)-IC+SRSL-((trans-4-Fluoro)P)-PIC+IPD-OH (peptide)
peptide: [Sar]ICSRSL[Pro(trans-4-F)]PICIPD-OH
modifications: disulfide 3-11; N-terminus assumed
SMILES: CC[C@H](C)[C@H](NC(=O)CNC)C(=O)N[C@H]1CSSC[C@@H](C(=O)N[C@H](C(=O)N2CCC[C@H]2C(=O)N[C@@H](CC(=O)O)C(=O)O)[C@@H](C)CC)NC(=O)[C@H]([C@@H](C)CC)NC(=O)[C@@H]2CCCN2C(=O)[C@@H]2C[C@@H](F)CN2C(=O)[C@H](CC(C)C)NC(=O)[C@H](CO)NC(=O)[C@H](CCCNC(=N)N)NC(=O)[C@H](CO)NC1=O
B3: Example 359: (tert-Butylacetic acid)-IC+SRS-((tBu)A)-PPI-(Pen)+IP-NH2 (peptide)
peptide: {Butanoyl(3,3-Me2)}-ICSRS[tBuAla]PPI[Pen]IP-NH2
modifications: disulfide 2-10
SMILES: CC[C@H](C)[C@H](NC(=O)CC(C)(C)C)C(=O)N[C@H]1CSSC(C)(C)[C@@H](C(=O)N[C@H](C(=O)N2CCC[C@H]2C(N)=O)[C@@H](C)CC)NC(=O)[C@H]([C@@H](C)CC)NC(=O)[C@@H]2CCCN2C(=O)[C@@H]2CCCN2C(=O)[C@H](CC(C)(C)C)NC(=O)[C@H](CO)NC(=O)[C@H](CCCNC(=N)N)NC(=O)[C@H](CO)NC1=O
B4: Example 349: ((N-Me)G)-IC+SRSLP-(Oic)-IC+IPD-OH (peptide)
peptide: [Sar]ICSRSLP[Oic]ICIPD-OH
modifications: disulfide 3-11; N-terminus assumed
SMILES: CC[C@H](C)[C@H](NC(=O)CNC)C(=O)N[C@H]1CSSC[C@@H](C(=O)N[C@H](C(=O)N2CCC[C@H]2C(=O)N[C@@H](CC(=O)O)C(=O)O)[C@@H](C)CC)NC(=O)[C@H]([C@@H](C)CC)NC(=O)[C@@H]2C[C@@H]3CCCC[C@@H]3N2C(=O)[C@@H]2CCCN2C(=O)[C@H](CC(C)C)NC(=O)[C@H](CO)NC(=O)[C@H](CCCNC(=N)N)NC(=O)[C@H](CO)NC1=O
B5: Example 360: (4-(3,5-Dimethyl-1,2-oxazol-4-yl)-L-phenylalanine)-IC+SRSLP-(Oic)-I-(Pen)+IP-NH2 (peptide)
peptide: [X7]ICSRSLP[Oic]I[Pen]IP-NH2
modifications: disulfide 3-11; N-terminus assumed
SMILES: CC[C@H](C)[C@H](NC(=O)[C@@H](N)Cc1ccc(-c2c(C)noc2C)cc1)C(=O)N[C@H]1CSSC(C)(C)[C@@H](C(=O)N[C@H](C(=O)N2CCC[C@H]2C(N)=O)[C@@H](C)CC)NC(=O)[C@H]([C@@H](C)CC)NC(=O)[C@@H]2C[C@@H]3CCCC[C@@H]3N2C(=O)[C@@H]2CCCN2C(=O)[C@H](CC(C)C)NC(=O)[C@H](CO)NC(=O)[C@H](CCCNC(=N)N)NC(=O)[C@H](CO)NC1=O
B6: Example 358: (Isovaleric)-IC+SRS-((tBu)A)-PPI-((N-Me)C)+I-NH2 (peptide)
peptide: Isovaleryl-ICSRS[tBuAla]PPI[NMeC]I-NH2
modifications: disulfide 2-10
SMILES: CC[C@H](C)[C@H](NC(=O)[C@@H]1CSSC[C@H](NC(=O)[C@@H](NC(=O)CC(C)C)[C@@H](C)CC)C(=O)N[C@@H](CO)C(=O)N[C@@H](CCCNC(=N)N)C(=O)N[C@@H](CO)C(=O)N[C@@H](CC(C)(C)C)C(=O)N2CCC[C@H]2C(=O)N2CCC[C@H]2C(=O)N[C@@H]([C@@H](C)CC)C(=O)N1C)C(N)=O
B7: Example 369: IC+SRSLP-(Oic)-I-(Pen)+IPE-OH (peptide)
peptide: ICSRSLP[Oic]I[Pen]IPE-OH
modifications: disulfide 2-10; N-terminus assumed
SMILES: CC[C@H](C)[C@H](N)C(=O)N[C@H]1CSSC(C)(C)[C@@H](C(=O)N[C@H](C(=O)N2CCC[C@H]2C(=O)N[C@@H](CCC(=O)O)C(=O)O)[C@@H](C)CC)NC(=O)[C@H]([C@@H](C)CC)NC(=O)[C@@H]2C[C@@H]3CCCC[C@@H]3N2C(=O)[C@@H]2CCCN2C(=O)[C@H](CC(C)C)NC(=O)[C@H](CO)NC(=O)[C@H](CCCNC(=N)N)NC(=O)[C@H](CO)NC1=O
B8: Example 367: ((N-Me)G)-IC+SRSLPPIC+I-(Oic)-D-OH (peptide)
peptide: [Sar]ICSRSLPPICI[Oic]D-OH
modifications: disulfide 3-11; N-terminus assumed
SMILES: CC[C@H](C)[C@H](NC(=O)CNC)C(=O)N[C@H]1CSSC[C@@H](C(=O)N[C@H](C(=O)N2[C@H](C(=O)N[C@@H](CC(=O)O)C(=O)O)C[C@@H]3CCCC[C@@H]32)[C@@H](C)CC)NC(=O)[C@H]([C@@H](C)CC)NC(=O)[C@@H]2CCCN2C(=O)[C@@H]2CCCN2C(=O)[C@H](CC(C)C)NC(=O)[C@H](CO)NC(=O)[C@H](CCCNC(=N)N)NC(=O)[C@H](CO)NC1=O
B9: Example 350: ((N,N-diMe)G)-IC+SRSLPPIC+IPD-NH2 (peptide)
peptide: [Me2Gly]ICSRSLPPICIPD-NH2
modifications: disulfide 3-11
SMILES: CC[C@H](C)[C@H](NC(=O)CN(C)C)C(=O)N[C@H]1CSSC[C@@H](C(=O)N[C@H](C(=O)N2CCC[C@H]2C(=O)N[C@@H](CC(=O)O)C(N)=O)[C@@H](C)CC)NC(=O)[C@H]([C@@H](C)CC)NC(=O)[C@@H]2CCCN2C(=O)[C@@H]2CCCN2C(=O)[C@H](CC(C)C)NC(=O)[C@H](CO)NC(=O)[C@H](CCCNC(=N)N)NC(=O)[C@H](CO)NC1=O
B10: Example 352: (D-(+)Biotin)-(Ahx)-AIC+SRS-((tBu)A)-PPI-(Pen)+IPD-OH (peptide)
peptide: XXAICSRS[tBuAla]PPI[Pen]IPD-OH
modifications: disulfide 5-13; not fully specified (N-terminus); printed as (D-(+)Biotin)-(Ahx)-AIC + SRS-((tBu)A)-PPI-(Pen) + IPD-OH
B11: Example 353: (Cyclopropanecarboxylic)-IC+SRS-((tBu)A)-PPI-((N-Me)C)+I-NH2 (peptide)
peptide: Cyclopropanecarbonyl-ICSRS[tBuAla]PPI[NMeC]I-NH2
modifications: disulfide 2-10
SMILES: CC[C@H](C)[C@H](NC(=O)[C@@H]1CSSC[C@H](NC(=O)[C@@H](NC(=O)C2CC2)[C@@H](C)CC)C(=O)N[C@@H](CO)C(=O)N[C@@H](CCCNC(=N)N)C(=O)N[C@@H](CO)C(=O)N[C@@H](CC(C)(C)C)C(=O)N2CCC[C@H]2C(=O)N2CCC[C@H]2C(=O)N[C@@H]([C@@H](C)CC)C(=O)N1C)C(N)=O
B12: Example 361: ((N-Me)G)-PIC+SRS-((tBu)A)-PPI-(Pen)+IP-NH2 (peptide)
peptide: [Sar]PICSRS[tBuAla]PPI[Pen]IP-NH2
modifications: disulfide 4-12; N-terminus assumed
SMILES: CC[C@H](C)[C@H](NC(=O)[C@@H]1CCCN1C(=O)CNC)C(=O)N[C@H]1CSSC(C)(C)[C@@H](C(=O)N[C@H](C(=O)N2CCC[C@H]2C(N)=O)[C@@H](C)CC)NC(=O)[C@H]([C@@H](C)CC)NC(=O)[C@@H]2CCCN2C(=O)[C@@H]2CCCN2C(=O)[C@H](CC(C)(C)C)NC(=O)[C@H](CO)NC(=O)[C@H](CCCNC(=N)N)NC(=O)[C@H](CO)NC1=O
B13: Example 368: IC+SRSLP-(Oic)-I-(Pen)+I-OH (peptide)
peptide: ICSRSLP[Oic]I[Pen]I-OH
modifications: disulfide 2-10; N-terminus assumed
SMILES: CC[C@H](C)[C@H](N)C(=O)N[C@H]1CSSC(C)(C)[C@@H](C(=O)N[C@H](C(=O)O)[C@@H](C)CC)NC(=O)[C@H]([C@@H](C)CC)NC(=O)[C@@H]2C[C@@H]3CCCC[C@@H]3N2C(=O)[C@@H]2CCCN2C(=O)[C@H](CC(C)C)NC(=O)[C@H](CO)NC(=O)[C@H](CCCNC(=N)N)NC(=O)[C@H](CO)NC1=O

Each binder was assayed against T1, recombinant human MASP1 active protease … (assay: cell-based or functional assay).
With B1 the “human MASP1 IC50” value was 33 nM.
B2 was tested, and the “human MASP1 IC50” value was 29 nM.
For B3, the “human MASP1 IC50” value was 31 nM.
In the case of B4, the “human MASP1 IC50” value is reported as 9.6 nM.
With B5 the “human MASP1 IC50” value was 31 nM.
In the case of Tranexamic-ICSRSLPPI[NMeC]IPD-NH2 (disulfide 2-10) [Example 364: (Tranexamic)-IC+SRSLPPI-((N-Me)C)+IPD-NH2], the “human MASP1 IC50” value is reported as 33 nM.
For B6, the “human MASP1 IC50” value was 31 nM.
With B7 the “human MASP1 IC50” value was 35 nM.
For B8, the “human MASP1 IC50” value was 35 nM.
With AICSRSLP[(3S-OH)P]ICIPD-NH2 (disulfide 3-11) [Example 355: AIC+SRSLP-((3S-OH)P)-IC+IPD-NH2] the “human MASP1 IC50” value was 29 nM.
In the case of B9, the “human MASP1 IC50” value is reported as 28 nM.
B10 was tested, and the “human MASP1 IC50” value was 28 nM.
In the case of GICSRSL[Morpholine(3S-CO)]PICIPD-OH (disulfide 3-11) [Example 357: GIC+SRSL-(Morpholine-3-carboxylic)-PIC+IPD-OH], the “human MASP1 IC50” value is reported as 31 nM.
With B11 the “human MASP1 IC50” value was 28 nM.
B12 was tested, and the “human MASP1 IC50” value was 32 nM.
With B13 the “human MASP1 IC50” value was 35 nM.

The binders below were run against recombinant human MASP2 active protease (amino acids 297-686, C-terminal His Tag) (human, UniProt O00187 297-686) (assay: cell-based or functional assay).
Chain of recombinant human MASP2 active protease (amino acids 297-686, C-terminal His Tag) (O00187 other isoform, or with tags, fused parts or gaps limits assumed): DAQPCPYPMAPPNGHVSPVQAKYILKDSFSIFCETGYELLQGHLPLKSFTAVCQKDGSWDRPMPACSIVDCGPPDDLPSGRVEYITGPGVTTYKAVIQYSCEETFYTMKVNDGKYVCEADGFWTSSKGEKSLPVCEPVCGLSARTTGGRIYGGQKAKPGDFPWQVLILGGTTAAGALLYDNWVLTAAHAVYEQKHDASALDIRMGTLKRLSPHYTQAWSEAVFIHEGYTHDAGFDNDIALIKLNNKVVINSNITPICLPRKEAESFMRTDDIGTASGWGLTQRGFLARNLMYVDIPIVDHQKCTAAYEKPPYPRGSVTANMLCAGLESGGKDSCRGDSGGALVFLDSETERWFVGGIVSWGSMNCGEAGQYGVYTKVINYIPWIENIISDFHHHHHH
B1 was tested, and the “human MASP2 IC50” value was 65 nM.
For B2, the “human MASP2 IC50” value was 510 nM.
In the case of B3, the “human MASP2 IC50” value is reported as 34 nM.
B4 was tested, and the “human MASP2 IC50” value was 420 nM.
In the case of B5, the “human MASP2 IC50” value is reported as 55 nM.
Tranexamic-ICSRSLPPI[NMeC]IPD-NH2 (disulfide 2-10) [Example 364: (Tranexamic)-IC+SRSLPPI-((N-Me)C)+IPD-NH2] was tested, and the “human MASP2 IC50” value was 98 nM.
With B6 the “human MASP2 IC50” value was 19 nM.
For B7, the “human MASP2 IC50” value was 420 nM.
With B8 the “human MASP2 IC50” value was 600 nM.
For AICSRSLP[(3S-OH)P]ICIPD-NH2 (disulfide 3-11) [Example 355: AIC+SRSLP-((3S-OH)P)-IC+IPD-NH2], the “human MASP2 IC50” value was 930 nM.
B9 was tested, and the “human MASP2 IC50” value was 370 nM.
In the case of B10, the “human MASP2 IC50” value is reported as 71 nM.
With GICSRSL[Morpholine(3S-CO)]PICIPD-OH (disulfide 3-11) [Example 357: GIC+SRSL-(Morpholine-3-carboxylic)-PIC+IPD-OH] the “human MASP2 IC50” value was 1300 nM.
With B11 the “human MASP2 IC50” value was 50 nM.
In the case of B12, the “human MASP2 IC50” value is reported as 1000 nM.
B13 was tested, and the “human MASP2 IC50” value was 1200 nM.
